Measurements taken from the DeepSol protein solubility set.

Experiment: soluble on expression in E. coli; label from the status in PepcDB or PDB records

Row | Sequence | soluble on expression in E. coli
1 | MRAAQALPQTAHVSHFGHGPRLVLALHCTIAHSGAWKGLTRILGEEAQFTAPDMLSHGRSPDWDGQGCFQDRILGIARTCLTEAPMDVIGHSFGATVALRLAVEHPERVRSLTLIEPVFFAVARQDAPELIDSHASDAQPYLDALAAGDHALAARLFNRMWSTADSPRWPDLPEATRAAMIRGIHVVPTMDAALFDDTAGLLAPGRLDRAAMPVLLLRGALTHPVMQAISMGLQRRLPDAVEMVIEGAGHMLPITHPDETAAHIRALWSRTG | not soluble
2 | MEWPRFGRVVLKPFSAGLSEAEWKGLYETFRDPEVAEWNGSSPLRSPFWLFKRFVLAEARRKDRVAFVILDEKGEYLGTLELYDLTPEEATLGILIGRKDRWGQGYGTEAVRAALDYAFRVLGLRRVKLRTFAHNLRARRAFQKAGFREVGVVPGPRGREDVHMEVRREDLGPEA | soluble
3 | MTSAYFGVAGGSNTGAQSAYFGVGGGPAGGGGGASKVGGGAAPPPGTSVYMGAGGGGGGGGAQSAYFAVGGAPVGGAPAAVSIGAPPPAGGGGASTMTALGGAPSGASTMTAVGGAPRGASTMTAVGGVPSGASTMTAVGGAPTGASTMTAVGGAPTGASPMTAFGGAPTGASTMTAVGGAPTGASTMTAVGGAPTGASTMTAVGGAPTGASTMTAVGGAPTGASTMTAVGGVPTGASTMTAIGGAPSGASTMTAVGGAPRGASTMTAVGGAPTGASTMTAVGAAPGGASTMTAVGGAPRGASTMTAVGAPGGGASALGAAPPAGSMSGGGGGATSGYFGVGQGVMGGGGAVGQSAYFGVGGGAAGGAKTGGGGGGGIPGQSMYMGAGGGGGAGGGATSAYFAPK | not soluble
4 | MTDSKYFTTTKKGEIFELKNELNSDKKEKKKEAVKKVIASMTVGKDVSALFPDVVNCMQTDNVELKKLVYLYLMNYAKSQPDLAIMAVNTFVKDCEDPNPLIRALAVRTMGCIRVEKITEYLCDPLRRCMKDEDPYVRKTAAVCVAKLHDMNPALVKEQGFVELLNDLLSDANPMVVANAVAALTEMNEQQTVIEVNSQMVNKLLTALNECTEWGQVFILDALAGYTPRDERETQNICERISPRLAHANAAVVLSTVKVLMKLIDMMPADSDFITQLTKKLAPPMVTLLSAEPEIQYVALRNINLIVQKRPDILKQEMKVFFVKYNDPIYVKMEKLDIMIRLAQQNNIAQVLSELKEYATEVDVDFVRKSVRAIGRCAIKVEASSERCVQTLLELIQTKVNYVVQEAVVVIKDIFRKYPNRYESIISALCENLDTLDEPEARASMIWIIGEYAERIDNADELLESFVEGFHDENTQVQLQLLTAVVKLFLKRPGVAQALVQRVLSLATQDSDNPDLRDRGFIYWRLLSADPAAAKNVVLTEKPLISEETDLLEPSLLEQLVCHIGTLASVYHKPPSAFIDPAKAPLRQINPIPAAKFGSSLLDTSSTPNAARNGSAAAPTVIPSQDQVIADLLSLDLNAPAASANTGAFGGAMSGTTSMGGLDDLLGLGGDPMPAAPTNSASYNPFDGLGGLGGAAPAAPPSQQPASIGGLAEIFGSGGFGGSSGITYPKELWLDASKAMGMQVEGTFVRRGGKIFMEMTITNRAMQAISGFALQFNKNSFGLIPVEQVNPAPILPNQSQNYTIACDTTGAVQVTTPLTNLQVSCSL | not soluble
5 | MGSDKIHHHHHHMSDIQLSLLNDFQRGFPLTSTPFDAIAQRLGLDVEALLDTLRRLTREGVVSRVGAVFRPNRVGVSTLAAMAVPEGRLDEVARLVSARPEVNHNYEREHRFNLWFVAAAANPAQLEQALHDIEQQTGLAAMRLPMVQDYHIDLGFDLRRSVGLTDRHQQKAAPSRALELDALDYVLVEAIQEGLPLVARPYAEVAAFIGTSEADVLIRLGRLLDHGVIKRLGIVVRHHELGFRANAMVVWNIPDEQVDEFGRCVGASGLVNLCYQRPRRLPEWPYNLFCMIHGKDRDAVLEHLDHLRDQCGLTDFPCEVLFSKRRFKQTGARYLAAQPKAAAEAT | not soluble
6 | MESDTSRTPYNSIYATLKNKKTDGEVVCCVHGRRCSYGKGNQDGKRDDNQYVNLPFLKNQDQIASKLTGKLNKLKIAEEKENKIVPREKPEMMSLNTLVEIARAGEQPRKGRGDKEKRTKKAPVLVDDSQLYVMIGPPSEHPGEPPASEPTETYKTNTIDESTFKGSEALSAYIGVVTLANAENHLTRRGEFALYHLFNPNGRLDTITDKLPLMIVYRTTTKKNRHYSIRTTCDQQFFVDCGYPNVRKHYSLSHLVMFYKTSATCEINPDDTSADSFSWWLE | not soluble
7 | GPGSMSTTAHATSMGPLPYPNALQSRHTTTEQRQIAAAAVRAYQGTLEQEKVLLQENDALLSEEEAGRLQRRVDNQAAADATAAQFRDRACKVVASVPGEQHQSEGGVIDIFHAACDGDVAALDACLRSASDINALGQPDPARYNGFQFKQRWLFRAPPLVFAAAFGREEAVRLLLEHGADPHVASTTGLRAQDYAAQRGYSAIVLMLTSGAPQ | soluble
8 | MQKAKNDYGTVVSVLKEDFHGFATGSIGAPDLNTVLTYAFPGECEYPWINFKPGYTQQQGWGGANVWQAGGTVCLNADGENFSHLNTPMLNVSGYQNIAIVRFDGVSDSLFSCLIREIRTLPSFASMPVRRKEWPIRL | not soluble
9 | MSLGDQLKIIQDGQSFAFSLDTLLLAYWAKEAIKNRSKVVELCSGNAAASLYMAAFNKAHYDDVELQEDIVSKARRSVELNDMQDRITVHQGNVKDAGSFLRKDSYDVVVVNPPYFKAPAGHKLNPDRSKAIARHELEINLEEIIAVSAGLLKMKGKMFMVHRPERLGEIINYGFKHDLAVKTVQPFVSRRGQDANLVIVEAVRSGKGDGLVLRDAIEVHEADGSNTPAIKEILEAKEGHHHHHH | soluble
10 | NALRRDPNLPVHIRGWLHKQDSSGLRLWKRRWFVLSGHCLFYYKDSREESVLGSVLLPSYNIRPDGPGAPRGRRFTFTAEHPGMRTYVLAADTLEDLRGWLRALGRASRAEGDDYGQPRSPAR | soluble
11 | MHHHHHHSSGVDLGTENLYFQSNAMKKVLIVFGTRPEAIKMAPLVQQLCQDNRFVAKVCVTGQHREMLDQVLELFSITPDFDLNIMEPGQTLNGVTSKILLGMQQVLSSEQPDVVLVHGDTATTFAASLAAYYQQIPVGHVEAGLRTGNIYSPWPEEGNRKLTAALTQYHFAPTDTSRANLLQENYNAENIFVTGNTVIDALLAVREKIHTDMDLQATLESQFPMLDASKKLILVTGHRRESFGGGFERICQALITTAEQHPECQILYPVHLNPNVREPVNKLLKGVSNIVLIEPQQYLPFVYLMDRAHIILTDSGGIQEEAPSLGKPVLVMRETTERPEAVAAGTVKLVGTNQQQICDALSLLLTDPQAYQAMSQAHNPYGDGKACQRIADILAK | soluble
12 | MHHHHHHSSGVDLGTENLYFQSNAMTNIQKRFYKGRVALNVLANNIENAKDIFEAAEGYVVVGVLSKDYPTVEEAVTAMKAYGKEIDDAVSIGLGAGDNRQAAVVAEIAKHYPGSHINQVFPSVGATRANLGEKDSWINSLVSPTGKVGYVNISTGPISAAGEEKAIVPIKTAIALVRDMGGNSLKYFPMKGLAHEEEYRAVAKACAEEGFALEPTGGIDKENFETIVRIALEANVEQVIPHVYSSIIDKETGNTKVEAVRELLAVVKKLVDQYA | soluble
13 | GPGSMPSITTAKREYEERLVDCLTKYSCVLFVGMDNVRSQQVHDVRRALRGKAEFMMGKKTLQAKIVEKRAQAKDASAEAKHFNDQCEEYNLLSGNTGLIFTNNAVQEITSVLDAHRVKAPARVGAISPCDVIVPAGSTGMEPTQTSFFQALNIATKIAKGMVEIVTEKKVLSVGDKVDNSTATLLQKLNISPFYYQVNVLSVWDRGVLFTREDLMMTEDMVEKMLMDGLS | not soluble
14 | FFAAITAAERRCWIASPYFVPDLDILAALKHAALRGVDVRLLVPDEADHTIPWLAAFAYFDEVREAGVRVMRYTDGFLHQKVFVVDDTIAAVGTTNLDNRSFRLNFEAMALFFDATVAGQVTAMLEHDFASSTELTRSLAAQPVFIRYGAPLARLFAPIL | not soluble
15 | MTADRPALRTGDRDTRLSFGSNLSSFTDYLRGHAPELLPENRIGHRSHSTRGGDGMESGDLAPHGTTIVALTYKGGVLLAGDRRATQGNLIASRDVEAVYVTDEYSAAGIAGTAGIAIELVRLFAVELEHYEKIEGVPLTFDGKANRLASMVRGNLGAAMQGLAVVPLLVGYDLDADDESRAGRIVSYDVVGGRYEERAGYHAVGSGSLFAKSALKKIYSPDSDEETALRAAIESLYDAADDDSATGGPDLTRGIYPTAVTITQAGAVHVSEETTSELARRIVAERTEQGGSAR | soluble
16 | MPESVAVTGGNGRIGKHVLDHLTTAGYRTVNLSRGKCDEAHSDAYIKTDLLDAGELYGALAKSDADTVVHLGMIPTPDQTPGYRTYESNVMSSYHVLEAAGELGIDTVALASSFSAIGGGFEPDLITVDYLPIDEDHRLTPSNPYAMGKQTLEIAADGFARRSTDAPETITSLRFPWVVDDDLAQETFVEADRTLAGLRNSDHFHTQRNTLCGYVHVTDAVALVEAAIEASFAGHERLWVSAPDTSAETPSAELAAELYSDADYRGQTGDDGSPYTALIDTTKAERLLGWEPTWNWRQLA | not soluble
17 | MGHHHHHHSHMRISPGQINQVRPKLPLLKILHAAGAQGEMFTVKEVMHYLGQYIMVKQLYDQQEQHMVYCGGDLLGELLGRQSFSVKDPSPLYDMLRKNLVTLATATT | not soluble
18 | MSLYELQKVIKMDTETEDVPMFTVQNLPREDIYKTIGEMAIIVPMKNEKLHLVDGVLKAIPHKSPIIIVSNSKRKGPNRFKQEVDLVKHFCNLTHSKVIMIHQRDPGLAEAFRETGYEDILDEKGLVRSGKGEGMLIGIMLAKAIGAKYVGFVDADNYIPGAVNEYVKDYAAGFLMSESEYAMVRLHWRHKPKVSRGTLYFKKWGRVSEITNRYLNQLISEKTAFETTIMVTGNAGEHAMTMKLAEILPFSTGYSIEPYEIVYLLERFGSWENVEEFQDVFDQGIEIFQIETLNPHFHEDKGQEHVKEMVLLSLTTIYHSKLASERLKRQILEDLRMHGIIKEDEEPPKPRVMRPIKDIDIKKWMKTLESNQETLLRFDLEGHHHHHH | not soluble
19 | MSLDSSKRQFLQQLGVLTAGASLVPLAEAKFPFSPERHEGSPRHRYAMLIDLRRCIGCQSCTVSCTIENQTPQGAFRTTVNQYQVQREGSQEVTNVLLPRLCNHCDNPPCVPVCPVQATFQREDGIVVVDNKRCVGCAYCVQACPYDARFINHETQTADKCTFCVHRLEAGLLPACVESCVGGARIIGDIKDPHSRIATMLHQHRDAIKVLKPENGTSPHVFYLGLDDAFVTPLMGRAQPALWQEGHHHHHH | not soluble
20 | SLKGSSAQVLVVEGEQGLNNDLSHSLEANGYLVTQCFNGKALQKEGLDDQLDLIILGATSESTEADLIQSIVMLREAVSTPIMLLGQKDCVESRIAFYTAGVDDYLTKPVNFSEFLIRVAVILKRVCSDSQMPKHADLLSGLDFEMDKRKGCIRSDEVELLLTPVEFKLLWALVSSGGRVLTKAFLYRNVLNRDFVQHDRSVDVHISRLRAKLSGVGVDTSRLETVHGEGYCYKEG | soluble
21 | GPHMVIRAEKMEAVTHLAASISHEIRNPLTAARGFIQLIEEQPLAADKRRQYARIAIEELDRAEAIITDYLTFAKPAPETPEKLNVKLEIERVIDILRPLANMSCVDIQATLAPFSVIGEREKFRQCLLNVMKNAIEAMPNGGTLQVYVSIDNGRVLIRIADTGVGMTKEQLERLGEPYFTTKGVKGTGLGMMVVYRIIESMNGTIRIESEIHKGTTVSIYLPLASSPSSSTISDKEKQLFAAL | soluble
